Where a chain is given by its changes, count along the chain named.
T1: recombinant human ROBO4 extracellular region polypeptide rROBO4-ECD (human, UniProt Q8WZ75 28-461)
T1 construct: Expressed from pEF6/V5-His-TOPO in FreeStyle 293-F cells; also called human ROBO4-ECD
T1 sequence: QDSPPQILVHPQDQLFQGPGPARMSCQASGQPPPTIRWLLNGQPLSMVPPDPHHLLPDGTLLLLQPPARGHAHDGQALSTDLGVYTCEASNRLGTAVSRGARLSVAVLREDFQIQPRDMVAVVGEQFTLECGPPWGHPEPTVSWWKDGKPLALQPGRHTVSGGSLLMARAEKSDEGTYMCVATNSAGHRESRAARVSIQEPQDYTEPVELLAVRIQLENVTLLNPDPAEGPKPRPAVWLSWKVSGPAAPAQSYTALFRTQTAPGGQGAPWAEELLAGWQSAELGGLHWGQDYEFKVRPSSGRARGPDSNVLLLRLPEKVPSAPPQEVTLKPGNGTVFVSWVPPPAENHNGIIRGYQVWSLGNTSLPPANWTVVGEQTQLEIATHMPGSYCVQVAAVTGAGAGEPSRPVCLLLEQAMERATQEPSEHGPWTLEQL

T2: human ROBO3 (pCI-hROBO3-transfected HEK293 cells) (human, UniProt Q96MS0 21-1386)
T2 sequence: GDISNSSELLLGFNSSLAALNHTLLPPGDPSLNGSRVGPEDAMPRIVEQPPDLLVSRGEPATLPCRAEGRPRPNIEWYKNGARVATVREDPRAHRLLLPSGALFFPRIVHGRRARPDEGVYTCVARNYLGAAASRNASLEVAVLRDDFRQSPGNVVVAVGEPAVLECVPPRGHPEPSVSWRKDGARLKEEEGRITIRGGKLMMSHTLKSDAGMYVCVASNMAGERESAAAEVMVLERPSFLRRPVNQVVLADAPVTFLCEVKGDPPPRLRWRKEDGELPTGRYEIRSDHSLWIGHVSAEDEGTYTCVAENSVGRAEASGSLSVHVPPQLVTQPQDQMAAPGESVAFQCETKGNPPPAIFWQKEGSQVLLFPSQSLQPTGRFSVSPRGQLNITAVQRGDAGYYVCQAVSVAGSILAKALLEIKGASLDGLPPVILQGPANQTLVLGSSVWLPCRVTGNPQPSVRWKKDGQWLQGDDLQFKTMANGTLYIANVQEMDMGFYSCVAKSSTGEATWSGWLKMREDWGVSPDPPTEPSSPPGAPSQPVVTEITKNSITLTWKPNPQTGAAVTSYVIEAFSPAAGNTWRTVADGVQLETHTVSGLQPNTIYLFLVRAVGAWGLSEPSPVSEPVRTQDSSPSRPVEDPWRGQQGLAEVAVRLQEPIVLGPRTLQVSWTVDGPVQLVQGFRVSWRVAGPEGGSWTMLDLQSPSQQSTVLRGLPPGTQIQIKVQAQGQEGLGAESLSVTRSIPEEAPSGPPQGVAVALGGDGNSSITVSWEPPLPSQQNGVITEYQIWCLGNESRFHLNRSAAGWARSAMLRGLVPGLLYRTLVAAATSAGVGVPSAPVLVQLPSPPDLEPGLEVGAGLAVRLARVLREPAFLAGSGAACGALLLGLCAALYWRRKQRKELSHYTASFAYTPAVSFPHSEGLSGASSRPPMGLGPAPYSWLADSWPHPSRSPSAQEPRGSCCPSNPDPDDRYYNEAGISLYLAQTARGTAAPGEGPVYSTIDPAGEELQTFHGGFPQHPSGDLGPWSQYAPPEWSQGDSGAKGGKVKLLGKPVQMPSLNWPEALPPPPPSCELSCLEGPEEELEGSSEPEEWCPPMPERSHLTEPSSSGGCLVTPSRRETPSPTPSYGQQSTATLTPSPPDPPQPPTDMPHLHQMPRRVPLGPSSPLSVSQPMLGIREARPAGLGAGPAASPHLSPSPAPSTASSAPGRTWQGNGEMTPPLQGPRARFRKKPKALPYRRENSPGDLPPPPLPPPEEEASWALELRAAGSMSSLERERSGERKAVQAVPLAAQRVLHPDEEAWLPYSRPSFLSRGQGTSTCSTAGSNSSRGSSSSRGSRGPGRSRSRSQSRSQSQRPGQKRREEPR

B1: humanized MAb1 antibody H-1143 (antibody, human IgG2, kappa, V domains shown)
VH: EVQLVESGGGLVQPGGSLRLSCAASGFTFSTYAMSWVRQAPGKGLEWVATISQGGTYTYYPDSVKGRFTISRDNAKNTLYLQMNSLRAEDTAVYYCARLIYYDYLDYWGQGTLVTVSS
VL: DIVMTQSPLSLPVTLGEPASISCRSSQSLENENKNLYLNWYLQKPGQSPQLLIYRVSNRFSGVPDRFSGSGSGTDFTLKISRVEAEDVGVYYCLQVTHVPWTFGPGTKVDIKR
notes: Human IgG2 / kappa constant regions; also called hMAb1-H2-type heavy chain + hMAb1-L2-type light chain
B2: humanized MAb1 antibody H-1140 (antibody, human IgG2, kappa, V domains shown)
VH: B1 VH
VL: B1 VL with E32S, K34G, L36T
notes: Human IgG2 / kappa constant regions; also called hMAb1-H2-type heavy chain + hMAb1-L1-type light chain
B3: humanized MAb1 antibody H-2140 (antibody, human IgG2, kappa, V domains shown)
VH: B1 VH with G44R
VL: B1 VL with E32S, K34G, L36T
notes: Human IgG2 / kappa constant regions; also called hMAb1-H4-type heavy chain + hMAb1-L1-type light chain
B4: humanized MAb1 antibody H-2143 (antibody, human IgG2, kappa, V domains shown)
VH: B1 VH with G44R
VL: B1 VL
notes: Human IgG2 / kappa constant regions; also called hMAb1-H4-type heavy chain + hMAb1-L2-type light chain

target: T1, recombinant human ROBO4 extracellular …; experiment: SPR (Biacore 3000), antibody captured via anti-human IgG on CM5, rROBO4-ECD as analyte, 1:1 model
Method: The dissociation constant between each antibody and rROBO4-ECD was determined with the antibody immobilized as a ligand and the antigen as an analyte using Biacore 3000 (manufactured by GE Healthcare Bio-Sciences Corp.). Approximately 80 RU of the antibody was bound via an anti-human IgG antibody (manufactured by GE Healthcare Bio-Sciences Corp.) immobilized on a sensor chip CM5 (manufactured by GE Healthcare Bio-Sciences Corp.) by an amine coupling method. The running buffer used was PBS containing 0.05% Surfactant P20. Dilution series solutions (0.1-200 nM) of the antigen were added at a flow rate of 30 μL/min. for 300 seconds onto the antibody-bound chip. Subsequently, a dissociation phase was monitored for 300 seconds. 3 M MgCl₂ was added thereto as a regeneration solution at a flow rate of 10 μL/min. for 30 seconds. Data was analyzed using the 1:1 binding model of analysis software (BIAevaluation Software, version 4.1) to calculate an association rate constant kon, a dissociation rate constant koff, and a dissociation constant (KD; KD=koff/kon).

Which Kd does the source give for B1 here?
Its Kd is 3.5 nM.

Which Kd does the source give for B2 here?
Its Kd is 3.9 nM.

B3 was tested. Which Kd did it give?
The Kd was 1.8 nM.

Which Kd does the source give for B4 here?
Its Kd is 1.7 nM.

target: T2, human ROBO3 (pCI-hROBO3-transfected …); experiment: flow cytometry (FC500), HEK293 cells transfected with pCI-hROBO3, FITC goat anti-human IgG Fc; control histogram IgG (human IgG)

Does B1 bind?
Result: no binding (tested: 10 µg/mL)

Does B3 bind?
Result: no binding (tested: 10 µg/mL)

Does B4 bind?
Result: no binding (tested: 10 µg/mL)

target: N-terminal FLAG-tagged human ROBO1 (pCI-FLAG-hROBO1-transfected HEK293 cells) (human, UniProt Q9Y6N7 58-1651); experiment: flow cytometry (FC500), HEK293 cells transfected with pCI-FLAG-hROBO1, FITC goat anti-human IgG Fc; control histogram IgG (human IgG)
Sequence (Q9Y6N7 other isoform, or with tags, fused parts or gaps): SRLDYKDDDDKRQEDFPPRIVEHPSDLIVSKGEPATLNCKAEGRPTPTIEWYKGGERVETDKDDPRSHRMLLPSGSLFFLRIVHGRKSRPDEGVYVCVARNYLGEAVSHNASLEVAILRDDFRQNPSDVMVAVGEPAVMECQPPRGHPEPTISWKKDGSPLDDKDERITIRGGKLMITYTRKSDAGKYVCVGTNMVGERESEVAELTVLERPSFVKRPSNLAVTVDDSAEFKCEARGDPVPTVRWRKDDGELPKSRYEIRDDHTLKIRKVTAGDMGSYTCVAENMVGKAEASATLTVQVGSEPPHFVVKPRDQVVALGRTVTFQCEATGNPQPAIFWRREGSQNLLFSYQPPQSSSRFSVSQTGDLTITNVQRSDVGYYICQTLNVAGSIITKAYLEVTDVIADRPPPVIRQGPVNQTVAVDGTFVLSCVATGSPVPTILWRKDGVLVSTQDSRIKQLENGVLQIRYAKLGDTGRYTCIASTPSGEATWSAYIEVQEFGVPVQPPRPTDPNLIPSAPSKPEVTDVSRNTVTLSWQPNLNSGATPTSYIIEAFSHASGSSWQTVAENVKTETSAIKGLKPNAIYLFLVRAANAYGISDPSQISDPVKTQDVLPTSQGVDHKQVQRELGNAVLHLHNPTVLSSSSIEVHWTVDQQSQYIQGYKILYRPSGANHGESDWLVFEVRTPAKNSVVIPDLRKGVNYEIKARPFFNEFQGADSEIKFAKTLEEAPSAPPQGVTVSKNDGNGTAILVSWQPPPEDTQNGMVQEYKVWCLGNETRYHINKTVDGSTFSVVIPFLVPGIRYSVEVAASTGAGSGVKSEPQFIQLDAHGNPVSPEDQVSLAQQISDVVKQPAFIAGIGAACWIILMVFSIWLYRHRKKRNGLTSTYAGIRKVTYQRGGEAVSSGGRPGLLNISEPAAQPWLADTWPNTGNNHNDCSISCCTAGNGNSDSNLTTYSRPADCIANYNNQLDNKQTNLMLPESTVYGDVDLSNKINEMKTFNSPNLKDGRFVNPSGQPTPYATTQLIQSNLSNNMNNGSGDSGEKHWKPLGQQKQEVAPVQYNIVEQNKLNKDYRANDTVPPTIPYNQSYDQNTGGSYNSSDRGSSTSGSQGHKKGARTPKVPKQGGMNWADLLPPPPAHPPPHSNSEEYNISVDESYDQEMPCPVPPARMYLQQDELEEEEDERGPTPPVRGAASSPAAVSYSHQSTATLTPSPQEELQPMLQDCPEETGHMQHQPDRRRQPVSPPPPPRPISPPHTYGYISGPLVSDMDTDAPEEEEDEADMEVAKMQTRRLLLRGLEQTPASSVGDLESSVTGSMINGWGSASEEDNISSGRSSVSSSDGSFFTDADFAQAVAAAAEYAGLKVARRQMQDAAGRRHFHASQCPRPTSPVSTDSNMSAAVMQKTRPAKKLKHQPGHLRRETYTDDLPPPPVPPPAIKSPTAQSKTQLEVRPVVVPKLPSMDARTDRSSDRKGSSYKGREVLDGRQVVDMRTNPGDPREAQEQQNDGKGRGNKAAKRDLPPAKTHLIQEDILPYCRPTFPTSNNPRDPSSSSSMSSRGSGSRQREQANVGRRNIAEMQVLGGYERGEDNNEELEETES

Does B1 bind?
Result: no binding (tested: 10 µg/mL)

Does B3 bind?
Result: no binding (tested: 10 µg/mL)

Does B4 bind?
Result: no binding (tested: 10 µg/mL)
